Values joined by “and” are separate entries in the source; they are usually repeats but may differ in a detail not shown here. Identical values can stand only once. Ends that are not written are not given here.
How the values were obtained:
[1] = molecular target: TM24 peptide expressed as a EYFP fusion in COS cells; assay: FRAP; TM24 as EYFP fusion in live COS-7 cells, 37 °C; diffusion rate compared with membrane proteins of known number of TM domains
[2] = molecular target: the molecule itself; assay: SDS-PAGE without cross-linker; 0.4 mg/ml peptide in DPC micelles, no BS3; SDS-PAGE, silver stain
[3] = molecular target: the molecule itself; assay: native gel or EMSA; L_(CX3CL1) cell lysate (40 µg total protein) solubilised in 1% DDM, NativePAGE Novex Bis Tris 3-12% gel, Western blot with anti-CX3CL1
[4] = molecular target: the molecule itself; assay: native gel or EMSA; plasma membranes of L_(CX3CL1) solubilised with CALX173ACE, CX3CL1 immuno-purified on anti-CX3CL1 beads, eluted by pH shock; clear native PAGE 4-15%, 4 °C, Western blot
[5] = molecular target: the molecule itself; assay: single-molecule photobleaching TIRF; L_(CX3CL1) membrane preparation diluted in excess DOPC, spread on a coverslip; stepwise bleaching of EYFP, 126 particles
[6] = molecular target: the molecule itself; assay: FRAP; FITC peptides in giant unilamellar vesicles of EggPC, 1000 lipids per peptide, PBS; lateral diffusion rate

TM24 peptide expressed as a EYFP fusion in COS cells (domain or fragment)
stoichiometry N [1]: 7

B1: TM24 peptide (transmembrane domain of CX3CL1 with two lysines at each end) (peptide)
peptide: KKVGLLAFLGLLFCLGVAMFTYKK
notes: two lysines added to ensure solubility; the 20 residues of the TM domain of CX3CL1; also called TM-CX3CL1 peptide; CX3CL1 transmembrane peptide; source: synthetic peptide
stoichiometry N [2]: 2

B2: CX3CL1-EYFP fusion protein (L929 cells stably expressing CX3CL1-YFP) (natural protein, UniProt P78423 25-397, looked up)
chain: QHHGVTKCNITCSKMTSKIPVALLIHYQQNQASCGKRAIILETRQHRLFCADPKEQWVKDAMQHLDRQAAALTRNGGTFEKQIGEVKPRTTPAAGGMDESVVLEPEATGESSSLEPTPSSQEAQRALGTSPELPTGVTGSSGTRLPPTPKAQDGGPVGTELFRVPPVSTAATWQSSAPHQPGPSLWAEAKTSEAPSTQDPSTQASTASSPAPEENAPSEGQRVWGQGQSPRPENSLEREEMGPVPAHTDAFQDWGPGSMAHVSVVPVSSEGTPSREPVASGSWTPKAEEPIHATMDPQRLGVLITPVPDAQAATRRQAVGLLAFLGLLFCLGVAMFTYQSLQGCPRKMAGEMAEGLRYIPRSCGSNSYVLVPV
stoichiometry N [3]: ~3 | stoichiometry N [4]: 5 | stoichiometry N [5]: 4.3 and 3 to 7 (2×)

B3: TM24-FITC (peptide)
peptide: KKVGLLAFLGLLFCLGVAMFTYKK
modifications: also: FITC, position not given here
notes: two lysines added to ensure solubility; the 20 residues of the TM domain of CX3CL1; also called TM24 conjugated with fluorescein; source: synthetic peptide
binding result [6]: binds

— publication PMC7271195, “CX3CL1 homo-oligomerization drives cell-to-cell adherence” (Scientific Reports, 2020)
